According to PMC12664392 (iScience, 2025):

What was measured:
CD3ε = CD3ε (UniProt P07766 23-207, SPR construct not described; extracellular domain taken by convention from the UniProt topology. In cell assays CD3ε is full mature chain in the TCR/CD3 complex); assay: SPR; Listed KD-values were obtained by surface plasmon resonance; format, CD3ε construct and conditions not told
[1] = target: HLA-A*0201/NY-ESO1(157-165)(9V) complex, refolded and biotinylated (human, p9C to valine (9V) (stands in the printed letters), biotin on the Avi tag); assay: SPR; ProteOn; the methods tell an inverse set-up (MRGS-6His tagged DARPin captured by an immobilised RGS-His antibody on a GLC chip) and also HLA-A*0201/peptide targets on a neutravidin chip at different dilutions; HEPES buffer; details: both partners purified

CD3ε, sequence (P07766 23-207): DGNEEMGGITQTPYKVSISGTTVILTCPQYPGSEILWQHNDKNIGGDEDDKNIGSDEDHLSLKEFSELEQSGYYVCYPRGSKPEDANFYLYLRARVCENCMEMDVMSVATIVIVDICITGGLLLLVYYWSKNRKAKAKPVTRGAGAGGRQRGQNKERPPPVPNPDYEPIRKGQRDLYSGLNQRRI

Binder | Kd (CD3ε) [nM] | Kd [1] [nM] | koff [1] [s⁻¹] | kon [1] [M⁻¹ s⁻¹]
CD3ε-specific DARPin version 1 (designed binder, four repeats (N-cap/ IR1/ IR2/ C-cap) joined in the printed order; also called CD3-v1; variant-1 (v1)) DLGQKLLEAAWAGQDDEVRELLKAGADVNAKNSRGWTPLHTAAQTGHLEIFEVLLKAGADVNAKDDKGVTPLHLAAALGHLEIVEVLLKAGADVNAQDSWGTTPADLAAKYGHEDIAEVLQKAA | 35 ± 21 |  |  | 
CD3ε-specific DARPin version 3 (designed binder, four repeats (N-cap/ IR1/ IR2/ C-cap) joined in the printed order; also called CD3-v3; CD3v3) DLGQKLLEAAWAGQLDEVRILLKAGADVNAKNSRGWTPLHTAAQTGHLEIFEVLLKAGADVNAKTNKRVTPLHLAAALGHLEIVEVLLKAGADVNARDTWGTTPADLAAKYGHRDIAEVLQKAA | 6 |  |  | 

The next lines start with the values.

Kd (CD3ε) [nM] | Kd [1] [nM] | koff [1] [s⁻¹] | kon [1] [M⁻¹ s⁻¹] | Binder
14 ± 3 |  |  |  | CD3ε-specific DARPin version 2 (designed binder, four repeats (N-cap/ IR1/ IR2/ C-cap) joined in the printed order; also called CD3-v2; CD3v2) DLGQKLLEAAWAGQDDEVRELLKAGADVNAKNSRGWTPLHTAAQTGHLEIFEVLLKAGADVNAKNDKRVTPLHLAAALGHLEIVEVLLKAGADVNARDSWGTTPADLAAKYGHQDIAEVLQKAA
 | 1.23 | 0.00113 | 925000 | NY_1xCD3 (bispecific DARPin T cell engager: HLA-A*0201/NY-ESO1(157-165)-specific DARPin NY_1 linked to a CD3ε-specific DARPin) (designed binder) DLGKKLLQAARAGQLDEVRELLKAGADVNAKDLIGVTPLHLAAFSGHLEIVEVLLKASADVNAKDVSGRTPLHVAAKHGHLEIVEVLLKAGADVNAKDLIGFTPLHLAAQFGHLEIVEVLLKAGADVNAQDKSGKTPADLAARAGHQDIAEVLQKAAGSPTPTPTTPTPTPTTPTPTPTGSDLGQKLLEAAWAGQDDEVRELLKAGADVNAKNSRGWTPLHTAAQTGHLEIFEVLLKAGADVNAKNDKRVTPLHLAAALGHLEIVEVLLKAGADVNARDSWGTTPADLAAKYGHQDIAEVLQKAA
